System: Saccharomyces cerevisiae
Assay: transcriptional activation domain activity (GFP:mCherry ratio, weighted mean of sorted bins, harmonized to initial dataset scale) (arbitrary fluorescence ratio units); higher = stronger transcriptional activation
Settings: beta-estradiol 1 µM; induction time 4 h
Procedure, shortened: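 Sorting into 8 bins by GFP:mCherry ratio followed a 4-hour hold at 30 °C after cultures were diluted 1:5 into SC with 1 uM beta-estradiol. The yeast diploids carried a GFP reporter and had barcoded protein tiles, fused to an estradiol-inducible synthetic transcription factor, integrated at URA3. Barcodes were then sequenced, and tiles with under 50 reads were removed. Activation activity is the read-weighted mean of bin median fluorescence, averaged across barcodes and linearly mapped onto the initial dataset scale.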

SRLRKTGTPTSSQHSSTAFSGYIDDPFNLNEILPLPASDFKLNTVTNLNEIDF
transcriptional activation domain activity: 106000

DPQTLSVAHRSYLRCLTQRLLLTQPTFTECMYNLLIHTDHLVALIHRLDGVWS
transcriptional activation domain activity: 38400

ATKTKAATTKKAAVPKKAAAKPAPKKAVAAAKPKANAGRPRKTVAAAAGPAPA
transcriptional activation domain activity: 42000

LAGGLGFFLWLLPTWWVLFACVGFLVWLFWSPVVLVASVGFVAWKLGYWWVLW
transcriptional activation domain activity: 24100

MAIYEAASTPGSSAGSHADKPYHSKRPHRKSRKGCRTCKARKVKCDEVRPSCT
transcriptional activation domain activity: 27900

MLGSARVWQKRACMGFSFSLVIVSFTPPHRLFSHVQLGSIVSLLFFVTLFNFM
transcriptional activation domain activity: 20700

DNDYNLDDTNNDNTNSMQSILEDFVSSEEALKFMPDAGRDARRYSEVVTSSFP
transcriptional activation domain activity: 89300

SGNTGENEEDIAFASGLNGGTFDSMLEALPDDLYFTDFVSPFTAAATTSVTTK
transcriptional activation domain activity: 85100

QGTNHAYHEHILNTDMDLKILEDLCNISSLYEVPFGKHINHHDHNNAGNGCDG
transcriptional activation domain activity: 83400

SSNGEEQSINNKNDIDDNSAYRRNNFRNSSNSGSHTFQLSDLDLDVDMRMDSA
transcriptional activation domain activity: 41100

MILARMLHIYIYKEIVDLTNVCIKCIKIISSEVRRVVLFNLDQTYETIPYIVE
transcriptional activation domain activity: 66600

MLLNMLMLWILYIFSVTTFSTFRYFIILPVPSLMDYSEFFRACMLGAFVLSPV
transcriptional activation domain activity: 71000

HSSAPASPASPSPNSAPTPPATTPPPPPSPAAPRRTHSPPTPGTRRPSTTTPS
transcriptional activation domain activity: 53500

MCVFLFFVLWLLQKLGLLALALRCYVQKNSLIFFLFFFLVLDYIFFFLHWCKH
transcriptional activation domain activity: 35300

RGGRGRRNGGKERGKEKKGKKEEENDRRGKGKERKERRKNDGGKRREGREREK
transcriptional activation domain activity: 47600

LRPGRQAQRRHVLALQARPALLLPPDLDARAVQPAHRQPQGPEEGGRAGPARP
transcriptional activation domain activity: 15100

LLLRGSTFSFLLSSFLHFFIALVNCMLYTPPKFFKNPFCMFILFYLSYLLWGT
transcriptional activation domain activity: 66000

EAEDDEEDADAAGGKKPKAKKRKRESTVKESAEEKKGKRKRASEQLAKQRRGK
transcriptional activation domain activity: 22600

SKMLTEFKQKLRLDYFMLLDLRLWKDMRMCLRKMFISTLVANLSYKRILGVRF
transcriptional activation domain activity: 73200

NAVIKDFACVNECLARCSHVITTRRIIYILQLRVHCVAYSLPILNLPLFFFSR
transcriptional activation domain activity: 55300

MRAAPKYITFFLCYGSWFTSMTRGLSCPCWVYFIGHVSIVVVVVFFTFVYIHG
transcriptional activation domain activity: 38800

KGLNGPKKEDGGDGESRKRGRPEEDEEERKEGGGGGRRARRRERLQGAAGGGS
transcriptional activation domain activity: 18600

NQLHRPPPEILKLFEASVRFEMQIRRLIAKDWLCVATWWLLKARATLANCNRH
transcriptional activation domain activity: 69100

ANEYNVVCSILVFWSDTVPLWGFFLIFWFFFLGFQLLGVESFGEAEFWLALLK
transcriptional activation domain activity: 62200

WLNGCFLLVGHIIFQLVMCYQLAQIIRGIVQMYGHLWISNDWHCLWITWLILF
transcriptional activation domain activity: 63600

HVLEYACSIAISRQQERRKRKAIRKSESLNALAKALLRLLSVFSTIRLASGQL
transcriptional activation domain activity: 91500

FIQLVHLWRLILNYGPTGPFNIRMPSHLTWVVIKQHIQQYFFRCLCLLNKDGA
transcriptional activation domain activity: 49100

RGTIRPGFLIYFFILFLWVFQIHCIMQIIVNRIALLHVSPTIVRRLKWGIFAI
transcriptional activation domain activity: 71800

APTAARVVPSACPSSVTSRATATATMTSPGGGSRSSSRTAAAAAPTGAAVARC
transcriptional activation domain activity: 48400

QAHPPVQVRKTSHKAAEQKRRDSLKTTFDDLRGTASAAAPPVGRHGRACAPGA
transcriptional activation domain activity: 35300

AFLLPFANHHRFVSYCLYVFGFIFFVFSLEKGYYKQQFTQFCVTHMCLLLVVF
transcriptional activation domain activity: 39800

KPEPAGEKGEGAASGGEGQSGGEGGRRRPSGRGRGRGRGRGGRGGRANRGSRG
transcriptional activation domain activity: 38800

HSGVLRDVHVVFQDRSFCARLAEQIGRRLRMIYSNWRETCCMEMLITLSLRLF
transcriptional activation domain activity: 73200

LHKRLEVTAYITCTRVIQRVVWFLLQGKYRLDYYWEEVWRALLNLLDFISNKI
transcriptional activation domain activity: 71300

ANVSATAAPIVAVKRGRGRPRKDPSETQAAKKAAAAAVAPDGAKRGRGRPRLV
transcriptional activation domain activity: 45200

MEGLVVCSVWIFSCVWSLWLALCIWIFCLFVGVWLVRIWRGPGLYLLFFFFFL
transcriptional activation domain activity: 71000

LLPGPPFPFPPLLLFFLVVFLSCSFFELSFMFLFFVYFFFISLFFCIFFFDNH
transcriptional activation domain activity: 34700

DDHRSRRYRDRGRDRDQDEDAEDSHRDRRRRRRSPDEGASRRHQRESHADGDG
transcriptional activation domain activity: 35700

EEGERKGEGGKEKWERDAVGNGGRGRQGGEQEEEREEGAGGRGKGGGGRSRGK
transcriptional activation domain activity: 45900

PRKFICLTNQLTARLGCELDKDHDLFKRTLYAVVQYVLVNHPHHILYNLIALS
transcriptional activation domain activity: 46000

MYHITVFSLPLNLYCARCFALTLTILMGKSFLMGFINVFNRICTLLVTTLFLI
transcriptional activation domain activity: 70100

IFLACCAVFPGLGNLGFTLMQYRLGQRSFLSAAAENLTWVPFFFFFFGGLSVH
transcriptional activation domain activity: 78400

AAERRQQGHRAKENEKRRQEEARRGRKERGAGGGKAKAGRKPAGQPRRRRSRE
transcriptional activation domain activity: 32900

FLRGLVVLLWSLDSLHLAFIVHGLYYYLIQNYGNYFSLFKPVWSFVGQILVSS
transcriptional activation domain activity: 57300

HGPMFHFSISNWVEGAKLAGHGNPTGHNPELILNNFRTPLGLLTAHLFKTMFP
transcriptional activation domain activity: 52200

NLPSLIGIQLLSSMGEYVMLWLIFVGTVIYYAGWVTLVIDGFCRFLNIRCLVI
transcriptional activation domain activity: 56900

MEVGSAAVAGPVLAAAHVPRKRRRPALSCEQCRKRKVKCDRTSPCGQCTRSKG
transcriptional activation domain activity: 32100

LALNDISRSVVAAGRVDGAVHITGVRDAVVAVAARQVRVHECRNVDLYLRCAS
transcriptional activation domain activity: 44800

YINAMLGLPRSISPDDFDQTLPLDLSDENITEVAYLPENQHSVLSSTGISNEH
transcriptional activation domain activity: 58400

VLAMVAQIRTGLWLLHYRDFMLRELCYDQDLYILQTALIILEPDLVFLLQFFE
transcriptional activation domain activity: 33500

FKVGIDGCLRLRGAGSTLCFHRVVRILTATIGTMVRVLFVCKELWRVTGEETS
transcriptional activation domain activity: 51700

QMLNPLEKILLSLASIVLSSRVSRNLFVLYALGLHFIVLFTLYSVVYVFIFCS
transcriptional activation domain activity: 37500

LHEQLESLMLRRLKRDVLTSLPTKSERILRVEMSALQTHFYKNILTKNFQALV
transcriptional activation domain activity: 74100

QLAIELSAFADDSFIFPDEDKPSNNNNNSNNGNDDHSNHDVLHEDPSTNNRQR
transcriptional activation domain activity: 16300

LRLAVKNMSEDLPPLVPDIVNLVKRLKWSKAACCYYVLVSNALSLVVFLIDTY
transcriptional activation domain activity: 54900

MQGWVHALFSFFFNLIVVALLSCLCFIHLSSSYYNLCPVLYLTTPCLFIRFYI
transcriptional activation domain activity: 62000

SKHATEAEKKKEEEKKSKSKEAPAKKEKKEKVKEEKPKEKVVAKIPEPAPSEP
transcriptional activation domain activity: 20200

RKPETAGEGSGAEGASGGENHRRGSTRGRGRGRGRGGRSSRGGRSRKDGAGAE
transcriptional activation domain activity: 33500

SLPFHCTLLLVVINLIAVVAILWTRFASKLLGSSVCAFLYIFVGTFTILIHVR
transcriptional activation domain activity: 20500

FFFVCYILQTLGMIAYMIMIVYDYYQNYLWFRGVAVVQSSTFIGQWYVFFIWF
transcriptional activation domain activity: 57700

EKNEKPAPVAPAEGAVAEAKEGKSQKKEKKEKKPAEEGSSSKKGGKSAPAAAE
transcriptional activation domain activity: 33700

QAFTIVDPTPPIRFYDLHRLHLTLVHSPMRFFHVAPIIPFLLSYLIELYSLFY
transcriptional activation domain activity: 43100

ASSVRIIAIKYFLTIHRWLPIVFKRGFFSSLLNPVAQRQTELGLLILCMKLCC
transcriptional activation domain activity: 48800

MRMLLYLLIHFIFMGVWTWLSWFSEVELLMVVLGLLETCFELTDMCGFCIFFV
transcriptional activation domain activity: 69500

PNSTGDDPSRLRRAHRKSPGGCQSCKRRRVKCDEKVSCSNCRRRREHCHAGQQ
transcriptional activation domain activity: 56900

PSTSPTPSSACAPSAASSTRSPPSTPARGGATSGTCCASACAASTPCVTRYTG
transcriptional activation domain activity: 11500

TLVEINGNQIRGSSELMDKDNIYLHLRRIFTCFQIEFLKLTGLPFLLREKLPG
transcriptional activation domain activity: 63400

MARNIYVIYIPKSICCSLPLSVPLSLLPLPSLPLFPSLTSTLLFFVLFHFFLL
transcriptional activation domain activity: 49600

HLFFLKNHHCFLSFIFFLFLFTLFFYFIFFLKLQFRKNNNYLFFLYKKFLTFF
transcriptional activation domain activity: 36800

GLCLLYISGLVCATIVCYIEFTMHQSALLNATRLTPFMIAALCLTLFLNIIAT
transcriptional activation domain activity: 57200

GDEDEEDTAELKEEALKGLIAVLVCASVLSIVRALMHSQLDLSILELLVDNMT
transcriptional activation domain activity: 53600

MALPKDRDEEKEDEKDNAPKKGKRGPRKRVSQACDRCRTRKDKCDGKKPSCST
transcriptional activation domain activity: 20800

EPGEEYHHSNGTNTDNNETTGADDTDDNNNNNNNNNKNGNNSSSTINNNNNNY
transcriptional activation domain activity: 35700

SITILVNIFLLHGSVKFIQKCLQYIGYIAEEVRSSLPLHKCLYWPLLIMLRLL
transcriptional activation domain activity: 45200

Reference: the supplement of paper PMC12636428
